Assay results taken from the supplement of paper PMC9170038.

Tested on: MS2 coat protein
Test: apparent KD of MS2 coat protein; designed switch direction (-1 OFF switch, 1 ON switch): -1; higher = weaker reporter binding
Method in brief: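 Each step of the titration lasted 0.8–1.5 h at the lowest concentration and 10–20 min at the highest. The protein, SNAP-549-labelled MS2 coat protein, went from 0.7 or 1.5 nM doubling to 3 µM over RNA switches transcribed on Illumina chips by stalled E. coli RNA polymerase. Normalised cluster fluorescence was curve-fitted, and the per-design median over clusters is given as apparent KD.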

[1] = Eterna round: R95, input ligand: FMN 200 uM
[2] = Eterna round: R95, input ligand: microRNA oligo, concentration not stated
[3] = Eterna round: R95, input ligand: none
[4] = input ligand: microRNA oligo, concentration not stated

| Sequence | apparent KD of MS2 coat protein [1] [nM] | apparent KD of MS2 coat protein [2] [nM] | apparent KD of MS2 coat protein [3] [nM] | apparent KD of MS2 coat protein (input ligand: FMN 200 uM) [nM] | apparent KD of MS2 coat protein (input ligand: none) [nM] | apparent KD of MS2 coat protein [4] [nM] |
| --- | --- | --- | --- | --- | --- | --- |
| AAAAAACAAGGAUAUACAAAAAAAAAAUGUGAUAAAAAACCACAUGAGGAUCACCCAUGUAGAAGGUGUAAAAA [JR_Exclusion2_Sub003] (puzzle: Exclusion 2) | 55.6 | 62.8 | 65 |  |  |  |
| AAAAAACAAGGAUAUACAAAAAAAAAAUGUGUUAAAUUUUCACAUGAGGAUCACCCAUGUAGAAGGUGUAAAAA [JR_Exclusion2_Sub005] (puzzle: Exclusion 2) | 46 | 49.1 | 51.7 |  |  |  |
| AAAAAACAAGGAUAUACGAAGGAGGAUUAUCUUAAUUUUUGACAUGAGGAUCACCCAUGUAGAAGGUGUUAAAA [JR_Exclusion2_Sub009] (puzzle: Exclusion 2) | 83.5 | 38.2 | 48.4 |  |  |  |
| AAAAAACAAGGAUAUACGAAGGAUGAUUAUCUUAAUUUUUGACAUGAGGAUCACCCAUGUAGAAGGUGUUAAAA [JR_Exclusion2_Sub008] (puzzle: Exclusion 2) | 125 | 51.5 | 52.9 |  |  |  |
| AAAAAACAUGAGGAUCACCCAUGUCAGGAUAUCCGAAAAGAAAAGAAAAAGAAAAAAGGGAGAAGGGACAAAAA [April's ex-date #2] (puzzle: Exclusion 1) | 50.5 | 42 | 33 |  |  |  |
| AAAAAGCGAGGAUAUGCAUAAGGACCCGGGAGGGAAAUCAAACAUGAGGAUCACCCAUGUAGAAGGCGCAAAAA [Exclss2-III] (puzzle: Exclusion 2) |  | 18.2 |  |  |  |  |
| AAAACAAAAGGAUAUACAUGAGGAUCACCCAUGUGGCGAUAAAUCGCCGCUAAACCAUGUAGAAGGUUUGCGAA [EX3 A.2] (Eterna round: R97, puzzle: Exclusion 3) |  |  |  | 102 | 42.6 |  |
| AAAACACAUGAGGAUCACCCAUGUGAGGAUAUGUUAAUUUCGGCCAAAGCCGAAAUUAACAGAAGGCACAUAAA [JR_Exclusion1_Sub019] (puzzle: Exclusion 1) |  | 46 |  |  |  |  |
| AAAACGUCAGGAUAUACGAAAUAAAAUAAAAUAAAAUAAAAGUAGAAGGGACAUGAGGAUCACCCAUGUAAUAA [Exclusion 4 #1] (puzzle: Exclusion 4) | 43.7 | 26.6 | 36.2 |  |  |  |
| AAAACUGAAGGAUAUGCCAGGGUGAGAGCUGGUGACGUUUAACAUGAGGAUCACCCAUGUAGAAGGUCAAAACA [Usate] (puzzle: Exclusion 2) |  | 12.6 |  |  |  |  |
| AAAAGAAGUGUUAGGAUAUGUGUAAGUAGAAAGACACAGAAGGAACAUGAGGAUCACCCAUGUGGCCAAAGAAC [Vesotila] (puzzle: Brourd's mod of Exclusion 4) | 38.7 | 14.1 | 13.6 |  |  |  |
| AAAAGAGUAGGAUAUCUGACGCGAAACAUGAGGAUCACCCAUGUAGGGCGGUCCUGCUUAAGAGAAGGGCUCAAAU [Sodirira] (puzzle: Exclusion 5) |  | 88.9 |  |  |  |  |
| AAAAGGUCAGGAUAUGCUUGGCGGAUUCUGGUAUCCAAAUGACAUGAGGAUCACCCAUGUAGAAGGGACAUCAG [Maanlesoge] (Eterna round: R97, puzzle: Exclusion 2) |  |  |  | 21.8 | 20.6 |  |
| AAAAGGUGAGGAUAUUCGGCGCCGGGAAGGUUGGUGCGGAUGAAGAAGGCACAUGAGGAUCACCCAUGUAAUAA [Excls4-I] (puzzle: Exclusion 4) |  | 43.5 |  |  |  |  |
| AAAAUAAAGAUGCCUUAAAACAUGAGGAUCACCCAUGUGAGUAAGGAUAUCGGAACCAAUCGCGACGAGAAGGUACUCGCGUGU [Ceestemaat] (Eterna round: R96, puzzle: Exclusion NG 3) |  |  |  | 9.87 | 14.4 | 9.44 |
| AAAAUACAUGAGGAUCACCCAUGUAAGGAUAUACGCCUAGUACCGAUGGUACUACAAAGUAGAAGGUACAUGGC [Arma] (puzzle: Exclusion 1) | 17.1 | 12.3 | 14.1 |  |  |  |

| Sequence | apparent KD of MS2 coat protein [1] [nM] | apparent KD of MS2 coat protein [2] [nM] | apparent KD of MS2 coat protein [3] [nM] | apparent KD of MS2 coat protein (input ligand: FMN 200 uM) [nM] | apparent KD of MS2 coat protein (input ligand: none) [nM] | apparent KD of MS2 coat protein [4] [nM] |
| --- | --- | --- | --- | --- | --- | --- |
| AAAAUACAUGAGGAUCACCCAUGUGAGGAUAUGAGAGUCAUUUAUAUAUAUUAGAUUCUCAGAAGGCACAUAAA [JR_Ex1_Sub068] (Eterna round: R97, puzzle: Exclusion 1) |  |  |  | 211 | 53.7 |  |
| AAAAUGUCAGGAUAUUGUUAGUUUAGUUGUUUGUAUUAGUUCGAGAAGGGACAUGAGGAUCACCCAUGUUAAAA [Ex4 #67] (Eterna round: R97, puzzle: Exclusion 4) |  |  |  | 45.7 | 29.9 |  |
| AAAAUGUGAGGAUAUCAGGUGUGCUAGCGAACUGGUACAUCUGAGAAGGCACAUGAGGAUCACCCAUGUUCCUU [Mat - Exclusion 4 - Mod of JL - D51] (puzzle: Exclusion 4) |  | 16.2 |  |  |  |  |
| AAACAGCAAGGAUAUACGGGCUGUGCUUUUCAUUUCAUACAACAUGAGGAUCACCCAUGUAGAAGGUGCAACAA [Ex2 #4] (Eterna round: R97, puzzle: Exclusion 2) |  |  |  | 125 | 34.3 |  |
| AAACAGCAAGGAUAUACGGGCUGUGCUUUUCAUUUCUUACAACAUGAGGAUCACCCAUGUAGAAGGUGCAACAA [Ex2 #5] (Eterna round: R97, puzzle: Exclusion 2) |  |  |  | 80.4 | 24.5 |  |
| AAACCCUGAGGAUAUAGAUAACAACAAAGCCUCACGUGCCAACAUGAGGAUCACCCAUGUAGAAGGCAGGCCAA [Mod R3 Insanara 4 - Jieux - Exclusion 2] (Eterna round: R97, puzzle: Exclusion 2) |  |  |  | 14.7 | 17.2 |  |
| AAACCUGCCCAUGACCGCAAGCCUUUUGCUUGUCUUACCACAUGAGGAUCACCCAUGUGACAUGGGCUCCUUAUAAA [Solabixe] (puzzle: Sensor v3, turn-off variant 2) | 14.1 | 10.5 | 13.5 |  |  |  |
| AAACUCCUGACAACCAGGAACAUGAGGAUCACCCAUGUGGCGUGACUCAUACGGGCUUUUUGUUCGUUUUAUUCACG [Aleatxe] (puzzle: Sensor v3, turn-off variant 1) | 41 | 26.6 | 51 |  |  |  |
| AAAGAAAAGAAAGGAUAUAGCGCAGAACCGCAGCUAGAAGGUUCGGUGGGUAUCCUGUAACAUGAGGAUCACCCAUGUAAAGAG [Tire] (Eterna round: R96, puzzle: Exclusion NG 1) |  |  |  | 69.9 | 55.7 | 48.7 |
| AAAGAUGGAGGAUAUACAUGAGGAUCACCCAUGUAGAAAAAAAAUUGGGAAAAAGAAAGUAGAAGGCCAAAAAA [Ex 3 May 43] (Eterna round: R96, puzzle: Exclusion 3) |  |  |  | 67.6 | 36.5 | 25.6 |
| AAAGGAGUAGGAUAUGAGCCCAAAUACAUGAGGAUCACCCAUGUCGGGUUCAUGGAGGGCUUAGAAGGAUUUAAAA [Onreridi] (Eterna round: R97, puzzle: Exclusion 5) |  |  |  | 25.8 | 23.1 |  |
| AAAGGGUGAGGAUAUCCAUCUGGAUCAGACUAGAUCCUGAUGGAGAAGGCACAUGAGGAUCACCCAUGUGAGUU [Eli 4x 4.33] (Eterna round: R97, puzzle: Exclusion 4) |  |  |  | 112 | 99.2 |  |
| AAAGUCCUAGGAGGAUAUCACCUGCCUAGCACAUGAGAAGGCCUAGGAGACAUGAGGAUCACCCAUGUGUCCUUAGUCGAAAAU [Ensobedi] (Eterna round: R96, puzzle: Exclusion NG 1) |  |  |  | 19.5 | 13.2 | 9.59 |
| AAAGUUGCCUACGGUGUGCACAUGAGGAUCACCCAUGUACCUCCAUGGCAGUGCCAAUAAUUAUGCUCGUCACUACA [Eternabot (L1) Solution 18] (Eterna round: R97, puzzle: Sensor, turn-off variant 1) |  |  |  | 14.9 | 14.2 |  |
| AAAUAAACAAGCAACUCGAACAUGAGGAUCACCCAUGUAAAGGGUGAAUCGUCCACCCAAAAAAAAAAUAAAAAAAA [Mat - Sensor v2 - Eli mod - 132] (Eterna round: R96, puzzle: Sensor v2, turn-off variant) |  |  |  | 57.7 | 55.9 | 116 |
| AAAUAACAAGCAGGAUCCUACAUGAGGAUCACCCAUGUGCUCGUCUUAUAAAGUACUAUCACGAAAGUGAUAGUACU [Mat - Sensor v3 - turn-off var 1 - Eli Mod - D72] (puzzle: Sensor v3, turn-off variant 1) | 153 | 93 | 156 |  |  |  |
